From PMC2665213 (Nucleic Acids Research, 2009)
Like-named read-outs stand apart in the source and are kept apart here.

Columns and labels:
TDP-43s (RRM1-RRM2) [1] = biological target: T1, TDP-43s (RRM1-RRM2) (mouse, UniProt Q921F2 101-265); assay: filter binding
TDP-43 RRM2 [2] = biological target: T2, TDP-43 RRM2 (mouse, UniProt Q921F2 192-265); assay: filter binding
TDP-43s (RRM1-RRM2) [3] = biological target: T1, TDP-43s (RRM1-RRM2); assay: filter binding; remark: listed apart in the source
TDP-43 RRM1 [4] = biological target: T3, TDP-43 RRM1 (mouse, UniProt Q921F2 101-191); assay: filter binding
SEC [5] = biological target: the molecule itself; assay: SEC
SEC [6] = biological target: the molecule itself; assay: SEC; remark: listed apart in the source
TDP-43 RRM2 [7] = biological target: T2, TDP-43 RRM2; assay: filter binding; remark: listed apart in the source
TDP-43 RRM1 [8] = biological target: T3, TDP-43 RRM1; assay: filter binding; remark: listed apart in the source
TDP-43 RRM2 [9] = biological target: T2, TDP-43 RRM2; assay: crystal structure

UGUGUGUGUGUGUGUG (ssRNA) [(UG)8]
Kd (TDP-43s (RRM1-RRM2) [1]): 2.79 nM

UGUGUGUGUGUG (ssRNA) [(UG)6]
Kd (TDP-43 RRM2 [2]): 4240 nM
Kd (TDP-43s (RRM1-RRM2) [3]): 14.2 ± 1.4 nM
Kd (TDP-43 RRM1 [4]): 65.2 nM

B1: RRM2 (second RRM domain of mouse TDP-43) (domain or fragment)
chain: MRGSHHHHHHGSKVFVGRCTEDMTAEELQQFFCQYGEVVDVFIPKPFRAFAFVTFADDKVAQSLCGEDLIIKGISVHISNAEPKHNKLN
stoichiometry N (SEC [5]): 2
stoichiometry N (SEC [6]): 4

UGUGUG (ssRNA) [(UG)3]
Kd (TDP-43 RRM2 [7]): 379 nM
Kd (TDP-43s (RRM1-RRM2) [1]): 3060 nM
Kd (TDP-43 RRM1 [8]): 4690 nM

B2: TDP-43s (truncated mouse TAR DNA-binding protein 43 covering both RRM domains) (domain or fragment)
chain: MRGSHHHHHHGSQKTSDLIVLGLPWKTTEQDLKDYFSTFGEVLMVQVKKDLKTGHSKGFGFVRFTEYETQVKVMSQRHMIDGRWCDCKLPNSKQSPDEPLRSRKVFVGRCTEDMTAEELQQFFCQYGEVVDVFIPKPFRAFAFVTFADDKVAQSLCGEDLIIKGISVHISNAEPKHNKLN
stoichiometry N (SEC [6]): 2

GTTGAGCGTT (ssDNA) [10-mer crystal ssDNA]
binding result (TDP-43 RRM2 [9]): binds

UGUGUGUG (ssRNA) [(UG)4]
Kd (TDP-43s (RRM1-RRM2) [1]): 115 nM

B3: RRM1 (first RRM domain of mouse TDP-43) (domain or fragment, UniProt Q921F2 101-191, looked up)
chain: QKTSDLIVLGLPWKTTEQDLKDYFSTFGEVLMVQVKKDLKTGHSKGFGFVRFTEYETQVKVMSQRHMIDGRWCDCKLPNSKQSPDEPLRSR
stoichiometry N (SEC [6]): 4
